The record followed here is the nanobody polyreactivity screen of Harvey et al. (2022).

The series can be described thus: yeast display, Sf9 membrane polyspecificity reagent, FACS + sequencing; frameworks hold sequencing errors. The method, boiled down:
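Galactose induction of a Saccharomyces cerevisiae BJ5465 synthetic nanobody display library ran 36–48 hours. The cells were then stained for 1 hour at 4 °C with 10% biotinylated, detergent-solubilized Sf9 membrane reagent, pulled down on streptavidin microbeads and FACS-sorted into low and high (top ~1%) gates on expression and reagent-binding fluorescence. Labels for polyreactivity follow the gate of origin.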
Take “QVQLVESGGGLVQAGGSLRLSCAASGRTFPYNAMGWSRQAPGKERELVAVISSGGGRTYYADSVKGRFTISRDNAKNTVYLQMNSLKPEDTAVYYCNKGGYAIRYDYYWGQGTQVTVSS”: the “polyreactivity (PSR sort gate)” value is on record as “high polyreactivity”.

As to “QVQLVESGGGLVQAGGSLRLSCAASGSTFHTYTMGWYRQAPGKERELVAGISRSGGSTYYADSVKGRFTISRDNAKNTVYLQMNSLKPEDTAVYYCNALSSKTDTYDYWGQGTQVTVSS”, the “polyreactivity (PSR sort gate)” value is on record as “high polyreactivity”. With “QVQLVESGGGLVQAGGSLRLSCAASGSIFWYAMGWYRQAPGKETELVAAISRGGSTYYADSVKGRFTISRDNAKNTVFLEMYRLKPEDTAVYYCATAYRYPRNAYFQRMDSWGQGTQVTVSS”, the “polyreactivity (PSR sort gate)” value is “high polyreactivity”. Under “QVQLVESGGGLVQAGGSLRLSCAASGFTFGYYAMGWYRQAPGKERELVATIDRGGGTSYADSVKGRFTISRDNAKNTVYLQMNSLKPEDTAVYYCNRAGYGAKARRYRSYWGQGTQVTVSS” stands “high polyreactivity”; under “QVQLVESGGGLVQAGGSLRLSCAASGFTFRLYTMGWYRQAPGKDRELVAGISTSGGSTYYADSVKGRFTISRDNAKNTVYLQMNSLKPEDTAVYYCAAQAFTSYDYWGQGTQVTVSS”, “high polyreactivity”. “QVQLVESGGGLVQAGGSLRLSCAASGRTIPFNAMGWYRQAPGKERELVAAISSSAGRTYYADSVKGRFTISRDNAKNTVYLQMNSLKPEDTAVYYCAARLYGRYRYDYWGHGTQVTVSS”: the “polyreactivity (PSR sort gate)” value is “low polyreactivity”. Turning to “QVQLEESGGGLVQAGGSLRLSCAASGSIFYKYAMGWYRQAPGKEREFVATIRYSGGSTYYADSVKGRFTISRDNAKNTVYLQMNILKPEDTAVFYCAADAYSYGYDSWGQGTQVTVSS”, the “polyreactivity (PSR sort gate)” value is reported as “high polyreactivity”. For “QVQLVESGGGLVQAGGSLRLSCAASGFIFNYYVMGWYRQAPGKERELVATISWRGGRTYYADSVKGRFTISRDNAKNTVYLQMKSLKPEDTAVFYCAKESYYFTRYDYWGQGTQVTVSS”, the “polyreactivity (PSR sort gate)” value is recorded as “low polyreactivity”. Under “QVQLVESGGGLVQAGGSLRLSCAASGIIFKNYAMGWYRQAPGKERELVAAISWRGGRTYYADSVKGRFTISRDNAKNTVYLQMNSLKPEDTAVYYCAKELYVSYRGGPWVDYWGQGTQVTVSS” stands “high polyreactivity”; under “QVQLVESGGVLVQAGGSLRLSCAASGRTFDRYAMGWYRQAPGKERELVAAITWSGGRTYYADSVKGRFTISRDNAKNTVYLHMNSLKPEDTAVYYCAADNSYRGYHSPYDYWGQGTQVTVSS”, “low polyreactivity”. With “QVQRVESGGGLVQAGGSLRLSCAASGRTLRYKGLYRQAPGKERELVAAITTGVSTNYADSVKGRFTISRDNAKNTVYLQMNSLKPEDTAVYYCAARARGTVYQYYYWGQGTQVTVSS” the entry was “high polyreactivity”; with “QVQLVESGGGLVQAGGSLRLSCAASGSTLERYTMGWYRQAPGKERELVAAIRWSGTSTYYADSVKGRFTISRDNAKNTVYLQMKSLKPEDTAVYYCARVGFSRYYRTMYYWGQGTQVTVSS”, “high polyreactivity”; with “QVQLVESGGGLVQAGGSLRLSCAASVSTYIYYAMGWYRQAPGKERELVAAISQSGGSTYYADSVKGRFTISRDNAKNTVYLQMNSLKPEDTAVYYCAARLRHLGLGRYGFDYWGQGTQVTVSS”, “high polyreactivity”.

For the sequence “QVQLVESGGGLVQAGGSLRISCAASGSTFSNYAMGWYRQAPGKERELVAAINSGGRTKYADSVKGRFTISRDNAKNSVYLQMNSLKPEDTAVYYCAKRIENFSGSLAGRWYDYWGQGTQVTVSS”, the “polyreactivity (PSR sort gate)” value is “high polyreactivity”. Consider “QVQLVESGGCLVQAGGSLRLSCAASGSIIGLYPMGWSRQAPGKERELVAAITQSAGSTYYADSVKGRFTISRDNALNTVFLQMNSLKPEDTAVYYCAAVWAYYGYESDYWGQGTQVTVSS”, for which the “polyreactivity (PSR sort gate)” value was “low polyreactivity”. With “QVQLVESGGGLVQAGGSLRLSCAASGRIFPAYTMGWYRQAPGKERELVAAISRGGRTKYADSVKGRFTISRDNANNTVYLQLNSLKPEDTAVYYCDTVTTYGGVWYDYWGQGTQVTVSS” the entry was “high polyreactivity”; with “QVQLVESGGGLVQAGGSLRLSCAASGCIFYSNAMGWYRQAPGKERELVAAIARSGGSTYYADSVKGRFTISRDNAKNPVYLQMNSLKPEDTAVYYCNAKFRKADYDSWGQGTEVTVSS”, “high polyreactivity”.

As to “QVQLVESGGGLVQAGGSLRLSCAASGSTFSRYAMGWYRQAPGKDRELVAAINRSGGSTYYADSVKGRFTISRDNAKNTVYLQMNSLKPEDTAVYYCNKYTGYLHDYWGQGTQVTVSS”, the “polyreactivity (PSR sort gate)” value is on record as “high polyreactivity”. With “QVQLVESGGGLVQAGRSLRLSCAASGFIILGNAMGWYRQAPGKERELVAAISSGGSTYADSVKGRFTISRDNAKNTVYLQMNSLKPEDTAVYYCAVDRAFRAQNYHEYDYWGQGTQVTVSS” the entry was “low polyreactivity”. With “QVQLVESGGGLVQAVGSLRLSCAASGITFNLYAMGWYRQAPGKEREFVAGITASGSSTYDADSVKGRFTISRDNAKNTVYLQMNSLKPEDTAVYYCAARWHIYYFSYVTSYAYGYWGQGTQVTVSS” the entry was “high polyreactivity”; with “QVQLVESGGGLVQAGGSLRLSCAASGYIFLTNAMGWYRQAPGKEREWVAAISVSGGRTYYADSVKGRFTISRDNAKNTVYLQMNSLKPEDTAVYYCNTLLTYGYDYWGQGTQVTVSS”, “low polyreactivity”. Consider “QVQLVESGRGLVQAGGSLRLSCAASGFTFGVNAMGWYRQAPGKERELVAAITRSGGTTYYADSVKGRFTISRDNAKNTVYLQMNSLKPEDTAVYYCNRRARSYADDYWGQGTQVTVSS”, for which the “polyreactivity (PSR sort gate)” value was “high polyreactivity”.

For the sequence “QVQLVESGGGLVQAGGSLRLSCAASGFTFNKYAMGWYRQEPGKERELVAAISVSGSRTYYADSVKGRFTISRDNAKNTFYLQMNSLKPEDTAVYYCAATHYSQVSDDYWGQGTQVTVSS”, the “polyreactivity (PSR sort gate)” value was “high polyreactivity”. With “QVQLVESGGGLVQAGRSLRLSCAASGRIFYRKAMGWYRQAPGKERELVAGITSGGSTNYADSVKGRFTISRDNEKNTFDLQMNSVKPEDTAVYYCAKASPAKFYSEAGYDYWGQGTQVTVSS” the entry was “low polyreactivity”. With “QVQHVESGGGLVQAGGSLRLSCAASGRIFYGNAMGWYRQAPGKERELVAGITRSSGTSTDYADSVKGRFTISRDNAKNSVYLQMNSMKPEDCAVYYCAAPPDSYYFYKVPVVPYDYWGQGTQVTVSS” the entry was “low polyreactivity”; with “QVQLVETGGGLVQAGGSLRLSCAASGRIIDTYAMGWYRQAPGKERELVAAITRRGGSTYYADSVKGRFTISRDNAKNTVYLQMNSLKPEDTAVYYCAKSLVNRHYDYWGQGTQVTVSS”, “low polyreactivity”. With “QVQLVESGGGLVQAGGSLRLSCAASGRIFAVYAMGWYRQAPGKERELVATISSSGSTHYADSVKGRFTISRDNAKNTVYLQMNSLKPEDTAVYYCNAGGSELKLGYDYWGQGTQVTVSS” the entry was “low polyreactivity”. “QVQLVESGGGLVQAGGSLRLSCAASGRIFRYYAMGWYRQAPGKERELVGSITYSGGRTNYADSVKGRFTISRDNAKNTVYLQMNSLKPEDTAVYYCNAAYVYYYPHYRYAPTAVDYDYWGQGTQVTVSS”: the “polyreactivity (PSR sort gate)” value is recorded as “low polyreactivity”. Under “QVQLVESGGGLVQAGGSLRLSCAASGRTFSVYTMGWYRQAPGKERELVAAISSTGRTNYADSVKGRFTISRDNAKNTVYLQMNSLKPEDTAVYYCNAGVRNSYTRQALVTAYYLYYYWGQGTQVTVSS” stands “high polyreactivity”. With “QVQLVESGGGLVQAGGSHPLSCAASGSIFDLYDMGWYRQAPGKERELVAAISLIGGSTSYADSVKGRFTISRDNAKNSVYLQMNSLKPEDTAVYYCAVDSRPYLRDYWGQGTQVTISS” the entry was “low polyreactivity”.
